Laboratory results published in article PMC9622684, “Characterization of an Escherichia coli-derived triple-type chimeric vaccine against human papillomavirus types 39, 68 and 70” (NPJ Vaccines, 2022).

Columns and labels:
[1] = biological target: HPV68 L1 (0–505 aa), wild-type L1-only virus-like particle (human papillomavirus type 68); experiment: cryo-EM structure; VLPs (~2.0 mg/mL) vitrified on Quantifoil grids; icosahedral 3D reconstruction (AUTO3DEM or cisTEM)
[2] = biological target: the molecule itself; experiment: as above

Molecule | stoichiometry N [1] [pentamers] | stoichiometry N [2] [pentamers]
HPV68 L1 (0–505 aa), wild-type L1-only virus-like particle (natural protein) | 72 | –
HPV39 L1 (15–505 aa), wild-type L1-only virus-like particle (domain or fragment, Major capsid protein L1 of human papillomavirus type 39, residues 15-505 as printed; chosen from full-length and 5-, 10-, 15-aa N-terminal truncations; Non-fusion expression, no tag; Copies: 72 pentamers (T = 7 capsid) as printed, i.e. 360 chains; also called WT HPV39; HPV39 VLP; source: E. coli ER2566 (pTO-T7), purified (SP or XS sepharose; self-assembly on removal of DTT, Superdex 200); copies: …) PPSVAKVVNTDDYVTRTGIYYYAGSSRLLTVGHPYFKVGMNGGRKQDIPKVSAYQYRVFRVTLPDPNKFSIPDASLYNPETQRLVWACVGVEVGRGQPLGVGISGHPLYNRQDDTENSPFSSTTNKDSRDNVSVDYKQTQLCIIGCVPAIGEHWGKGKACKPNNVSTGDCPPLELVNTPIEDGDMIDTGYGAMDFGALQETKSEVPLDICQSICKYPDYLQMSADVYGDSMFFCLRREQLFARHFWNRGGMVGDAIPAQLYIKGTDIRANPGSSVYCPSPSGSMVTSDSQLFNKPYWLHKAQGHNNGICWHNQLFLTVVDTTRSTNFTLSTSIESSIPSTYDPSKFKEYTRHVEEYDLQFIFQLCTVTLTTDVMSYIHTMNSSILDNWNFAVAPPPSASLVDTYRYLQSAAITCQKDAPAPEKKDPYDGLKFWNVDLREKFSLELDQFPLGRKFLLQARVRRRPTIGPRKRPAASTSSSSATKHKRKRVSK | – | 72
HPV70 L1 (10–506 aa), wild-type L1-only virus-like particle (domain or fragment, human papillomavirus type 70, UniProt P50793 10-504, looked up, Major capsid protein L1 of human papillomavirus type 70, residues 10-506 as printed; chosen from full-length and 5-, 10-, 15-aa N-terminal truncations; Non-fusion expression, no tag; Copies: 72 pentamers (T = 7 capsid) as printed, i.e. 360 chains; also called WT HPV70; HPV70 VLP; source: E. coli ER2566 (pTO-T7), purified (SP or XS sepharose; self-assembly on removal of DTT, Superdex 200); copies: …) TVYLPPPSVAKVVNTDDYVTRTGIYYYAGSSRLLTVGHPYFKVPVNGGRKQEIPKVSAYQYRVFRVSLPDPNKFGLPDPSLYNPDTQRLVWACIGVEIGRGQPLGVGVSGHPLYNRLDDTENSHFSSAVSTQDSRDNVSVDYKQTQLCIIGCVPAMGEHWAKGKACKSTQQGDCPPLELVNTAIEDGDMIDTGYGAMDFRTLQETKSEVPLDICQSVCKYPDYLQMSADVYGDSMFFCLRKEQLFARHFWNRGGMVGDTIPSELYIKGTDIRERPGTHVYSPSPSGSMVSSDSQLFNKPYWLHKAQGHNNGICWHNQLFITVVDTTRSTNFTLSACTETAIPAVYSPTKFKEYTRHVEEYDLQFIFQLCTITLTADVMAYIHTMNPAILDNWNIGVTPPPSASLVDTYRYLQSAAIACQKDAPTPEKKDPYDDLKFWNVDLKEKFSTELDQFPLGRKFLLQVGARRRPTIGPRKRPASAKSSSSASKHKRKRVSK | – | 72
